Reference: IntAct's records for PubMed 18488041

B1: Proto-oncogene vav (Mus musculus), P27870 (parent)
chain: MELWRQCTHWLIQCRVLPPSHRVTWEGAQVCELAQALRDGVLLCQLLNNLLPQAINLREVNLRPQMSQFLCLKNIRTFLSTCCEKFGLKRSELFEAFDLFDVQDFGKVIYTLSALSWTPIAQNKGIMPFPTEDSALNDEDIYSGLSDQIDDTAEEDEDLYDCVENEEAEGDEIYEDLMRLESVPTPPKMTEYDKRCCCLREIQQTEEKYTDTLGSIQQHFMKPLQRFLKPQDMETIFVNIEELFSVHTHFLKELKDALAGPGATTLYQVFIKYKERFLVYGRYCSQVESASKHLDQVATAREDVQMKLEECSQRANNGRFTLRDLLMVPMQRVLKYHLLLQELVKHTQDATEKENLRLALDAMRDLAQCVNEVKRDNETLRQITNFQLSIENLDQSLANYGRPKIDGELKITSVERRSKTDRYAFLLDKALLICKRRGDSYDLKASVNLHSFQVRDDSSGERDNKKWSHMFLLIEDQGAQGYELFFKTRELKKKWMEQFEMAISNIYPENATANGHDFQMFSFEETTSCKACQMLLRGTFYQGYRCYRCRAPAHKECLGRVPPCGRHGQDFAGTMKKDKLHRRAQDKKRNELGLPKMEVFQEYYGIPPPPGAFGPFLRLNPGDIVELTKAEAEHNWWEGRNTATNEVGWFPCNRVHPYVHGPPQDLSVHLWYAGPMERAGAEGILTNRSDGTYLVRQRVKDTAEFAISIKYNVEVKHIKIMTSEGLYRITEKKAFRGLLELVEFYQQNSLKDCFKSLDTTLQFPYKEPERRAISKPPAGSTKYFGTAKARYDFCARDRSELSLKEGDIIKILNKKGQQGWWRGEIYGRIGWFPSNYVEEDYSEYC

Variants of: B1
Settings: with RAC1, P63000-1

Variant	effect of a mutation on the interaction
Y174F	increasing interaction
K208A	increasing interaction
